According to publication PMC6278290, “Biochemical and Functional Characterization of Anthocyanidin Reductase (ANR) from Mangifera indica L” (Molecules, 2018):

Tests used:
purified protein [1] = substrate: Oc1cc(O)c2cc(O)c(-c3ccc(O)c(O)c3)[o+]c2c1; assay: purified protein; assay type: biochemical, Mangifera indica; details: 1 mM NADPH, 20 min
purified protein [2] = substrate: NC(=O)C1=CN([C@@H]2O[C@H](COP(=O)(O)OP(=O)(O)OC[C@H]3O[C@@H](n4cnc5c(N)ncnc54)[C@H](OP(=O)(O)O)[C@@H]3O)[C@@H](O)[C@H]2O)C=CC1; assay: purified protein; assay type: biochemical, Mangifera indica; details: 100 μM cyanidin, 100 mM citrate buffer pH 4.0, 30 °C, 20 min, substrate inhibition at 1.25-3.75 mM, varied: cofactor
[3] = 100 mM citrate buffer pH 4.0, 30 °C
[4] = 100 mM phosphate buffer pH 3.0, 30 °C

| Protein | Km (purified protein [1]; [3]) | kcat/Km (purified protein [1]; [3]) | Km (purified protein [2]) | Vmax (purified protein [2]) | Km (purified protein [1]; [4]) | kcat/Km (purified protein [1]; [4]) |
| --- | --- | --- | --- | --- | --- | --- |
| MiANR1-3 (Mangifera indica; S2A) (protein, S2A from the NcoI site; C-terminal His6 tag (pET28b), E. coli BL21(DE3) pLysS, Ni-NTA purified; about 37 kDa on SDS-PAGE) MAAQQTAKNTACVVGGTGFVASLLIKLLLQKGYSVSTTVRDPDNQQKISHLLSLQELGELKIFGADLTDEGSFDAPIAGSDIVFHVATPVNFASEDPENDMIKPAIQGVENVLKACAKAKTVKRVILTSSAAAVTINNQDGTGLVMDEKHWTDVEFLSSAKPPTWGYPVSKTLAERHAWKFAQENNIDLITIIPSLMAGPSLTPDIPSSLNLAMSLISGNEFLTNALKGMQMLSGSISIAHVEDVCRAHIFLAEKESASGRYICCAVNTSVPELAKFLHQRYPQYKVPTDFGDFPSKPKLLISSGKLISEGFSFKFGIEEIYDQTVEYFKAKGVL | 80.43 ± 5.85 µM | 401000 M⁻¹ s⁻¹ | 18.98 ± 1.18 µM | 0.019 µmol/min/mg | – | – |
| MiANR1-2 (Mangifera indica; S2A) (protein, S2A from the NcoI site; C-terminal His6 tag (pET28b), E. coli BL21(DE3) pLysS, Ni-NTA purified; about 37 kDa on SDS-PAGE) MAAQQTAKNTACVVGGTGFVASLLIKLLLQKGYSVSTTVRDPDNQQKISHLLSLQELGELKIFGADLTDEGSFDAPIAGSDIVFHVATPVNFASEDPENDMIKPAIQGVENVLKACAKAKTVKRVILTSSAAAVTINNQDGTGLVMDEKHWTDVEFLSSAKPPTWGYPASKTLAERHAWKFAQENNIDLITIIPSLMAGPSLTPDIPSSLNLAMSLISGNEFLTNALKGMQMLSGSISIAHVEDVCRAHIFLAEKESASGRYICCAVNTSVPELAKFLQQRYPQYKVPTDFGDFPSKPKLLISSEKLISEGFSFKFGIEEIYDQTVEYFKAKGVL | 116.4 ± 4.42 µM | 363000 M⁻¹ s⁻¹ | 18.14 ± 1.4 µM | 0.0227 µmol/min/mg | – | – |
| MiANR1-1 (Mangifera indica; S2A) (protein, S2A from the NcoI site; C-terminal His6 tag (pET28b), E. coli BL21(DE3) pLysS, Ni-NTA purified; about 37 kDa on SDS-PAGE) MAAQQTAKNTACVVGGTGFVASLLIKLLLQKGYSVSTTVRDPGNQKKISHLLSLQELGELKIFGADLTDEGSFDAPIAGSDIVFHVATPVNFASEDPENDMIKPAIQGVGNVLKACAKAKTVKRVILTSSAAAVTINNQDGTGLVMDEKHWTDVEFLSSAKPPTWGYPASKTLAERHAWKFAQDNNIDLITIIPSLMAGPSLTPDIPSSLNLAMSLISGNEFLTNALKGMQMLSGSISIAHVEDVCRAHIFLAEKESASGRYICCAVNTSVPELAKFLQQRYPQYKVPTDFGDFPSKPKLLISSEKLISEGFSFKFGIEEIYDQTVEYFKAKGVL | – | – | – | – | 48.32 ± 3.45 µM | 330000 M⁻¹ s⁻¹ |
